This note sets out measurements from the NTF2 design screens of Basanta et al. (2020).

This data set can be described thus: protease stability score; higher = more stable; yeast display proteolysis, trypsin and chymotrypsin.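 Note: log10 excess protease needed over predicted unfolded state with 0 meaning unfolded.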
Take “DDDLKRKVHKFVEDWKDGDPHRLNHMADEDVRFQVGDKEIHGRKQMHEEVDKEKKEMRRHIDHLELDNQGNTVRVRFELTFTHNGKPFKVDVTIDMEFDGDRLKQAVQRVPREDQTKVKN”: the protease stability score is -0.209.

For the sequence “DDDLRRRLHEFWENMQEGDEKRLREMADPNVRFEVGDKSIHGREEFARKVKELHEQQRFSVRIDRMDNQGNKVDITFHVTQKHNGRPNRYTARVTITAHNGKIKSVSVDISQ”, the protease stability score was found to be 0.391. Under “DDDLTRKVEKFMRNVQKGNEEELKKMMDPNVHAEVGDKVYHGREDAVEKRVTHYHEQNWRYEDIDLKVEGDRAKAKVVRVVNINGKPIRFEFSVNMRFHNGKITRINNDLPEEVLHKLKR” stands 0.118; under “DDDLVRKAKKFYEIVETGDEDKIVKMLDKDAQINVGDRRIDGREDIKTFEHKQVQHMRIEFDSVHASHQGDKVRVRAQMTVDVNGNPITYQAEFVFNVKNGRIKNLEQRVDEKEMKKIKS”, 0.007; under “DDDLVRKLNHMVKVMQNGDPDKIVDQMDPNARLIVGDKNVHGRDEARRFMEKVNKHLRFEIKSVTLHDRPNNANADVDANFHINGRPVRLKYIIVVSVHNGRIKEVQLRLSEDQERKLEK”, 0.71.

For “DDDNARELVKRIMKAWQTGDEKELNKNMDPNVRIEVGDKTWHGREDVSKMARELRKQVDSIEVKDVEVQGNHANADVVQVVNGEQKHYLVIIDFHNGKARRLKIEER”, the protease stability score came out at 2.11. On to “DDDNFRRFKDLQHAENRGDPDRVMELVDPNAHIRVGNTTLKGTKQIKDWVEHILKNWDEQLHSVDEKFQGNHITARYQMEINVNGEPEHFDVTQMATLDNGKIQNRVVRVSEDDLENIER”, for which the protease stability score is -0.247.

Regarding “DDDNKRKAETYMKNLHTGDPDKATEYMDKDAKIQYGDKSVHGRHQWREEIERRRKELRFTVDLHRLHVQGEKFDLKYIEHNNHNGNPKSQSASVTYRMHNGRVHSIQYSYTK”, the protease stability score is -0.237.

“DDDNKRVVERFLRAQQEGDPDTAKENADENAHFHYGDRRITGRESYAEWMERRKKESRVEFRIDQMNVSGDRIDVHFQMQVRHNGRPERFEARMVIKITNGHIVQVRVEKKE” registered a protease stability score of 0.207. Sequence “DDDNLKRQNEDVNRAVQHGDEKKVADMADPNVKVYYGDKEIHGREKVKEWWKRLADRADSFTVVDIELQGEKIRVRVKANIDGKHVDMEFEAHASNGRVKKMHINPDQFRQLRS” registered a protease stability score of 0.445. Under “DDDNVRKMNEMFNALETGDEHKLKKQFDPNAHIRIGDQTYHGMDDYARKFRHKRNNMRQSYESYTITNEGDKVTIEATFSRRHNGTPERKKVVVEVDIRGDQAKSATVQDDR” stands 0.032; under “DDDNVRKYVELMHEGDNEQLVRLADPNVRLQVGDKQYDGREDFEHHLRQIHTQADHFQVQDYHFEGDKAVMDVVMTVNGHQFRFKIHVEVRNGEVKQVQWDFTDPNQRDRFRNNLS”, 0.611.

The sequence “DDDQARKFVNIVQTGDEDKLLELAPPDVRVKVGDHRVHGRENVKRMVEKLKKSVDHFSIRQIHVHNGRVHVDMDVNVNGQTIRAEYVFVAHNGKLEEISIEVTDETVHDLMTRILS” displayed a protease stability score of 0.665. Next, “DDDQKRRVEDWWKVLNHGDPDKLRTLADENAKFDVGDKKYHGMTRAADELVRTLREIRLNIRRMEIQVHNGRVVANVDAEVRVNGNPMQIHYTAQMTASNGKITSVQNRIPSEQLKRLRK”: 0.165. Under “DDDQLDRNATQMMEALQTGDEQTLNNLVDPDVRFHIGDKVVHGRDQWNEQVKKIRDRADRIHIKHVEAQGDKVRMEFVLNINGRNIRVRMEAEVHNGRFKVITFDPEQVKEMRK” stands 1.19. Under “DDDQLRKFLEILRSGNEDDMERQADKDARARVGDDHYHGREEVAHMIRNFLHRADHIEVKSVRFTGEKAKVDMHAVVNGQELRLIIEAEVHNGTLKHIVMKVTDEEHKRTLERAMS” stands 0.29; under “DDDQNRRFKEMLEVRKTGDEHRLKQLLDPNARLNIGDKRIHGREEIARFMKTKFDESRSEVDVKDVKAHNGRISVTADFRNSSNGQPQRYTATMRATIHNGSFQEIQIDTEK”, -0.234; under “DDDQQRQAEKIVRAIRHGNEQEVDELVDENVRIEYGDKVVHGRSQLRKKMQDEKRHIRQDIKVDTVKEDGDKALIHFKNNFTVNGTPTTNTYSYEVEFTNGRAKELRIRVDPQEVRKQEK”, -0.118. In the case of “DDDQRKDYERFLRWQEENDPRKVAEQADPNARFRYGDKHVQGREEQSRRFDEQRKDARWDLDIKRVNVEGNKITVHFKMQMDRNGKPDSRDATRTIEYDNGRIQRDEVKVSS”, the protease stability score is -0.231. The sequence “DDDQRRKAAQRAHELVKTGDPEEIEKLADKHARIQVGDKRVQGREEAKKIMKEFRERVDHIRISDVQVDGDKIKVDVVVVHNGTKKHVVFVFRVHNGKATEISLEDK” returned a protease stability score of 0.027.

In turn, “DDDQRRKFERFITAVRTGSKEDLNKLIDPNAKINVGNHRYHGMEEFAKQVVTHNKDLRFHVRFKELDFSGNRVRVSYEMTMTVNGKPYQFTARVEFDVHDGSVKSVREQISEDVEQRQRN” returned a protease stability score of 0.423. Under “DDDQSRKLKKLFDNNNWDTLQDNADKNANIEVGNKELHGREDAEQLSEKFRDQVDHLTIESIDISGDRVIVTFVVNVNGQRVKYRVVVEAHNGRVKRMRFEFTNPEERKQYDEQLG” stands 0.899; under “DDDQVRKYQHWLQEQEKGNEESLMEKMDPNVRIRVGNNEVHGREQAAHDIRKTQQEIRVQIDFKSVDAHNGRFDFKFTAQFEVNGTPFRYSASATVVAHNGHIKRVEIRVDPEVQRKRNK”, -0.079. The sequence “DDDRKARDFWRKFKEVLDKGDSEENDKLVDENAKFEYGDKTLHGREDAMRWNKHLTTRVDHLRMEVEDFKVHNGKIDVQVRLDVNVNGQQRQHDVKLVAEIDGDKVKLHSLTVK” registered a protease stability score of 0.009. Under “DDDRRRQAEEILKIFETGDPQKLRSQFDPNARMHYGDKTIHGMEHAAESMERWQNEMRIELKSYSFRKQGDKVQIDAHFVVHHNGKPDTVKIHIRMELDGDKVREVSVEHTQ” stands 1.2; under “DDDRVETVAQELAEAIMENDEDRAREMVDPNARIVYGEKDLHGREAFHTVMQLFQHRVDRVDLETVSVHNGRVKFEAVLKHNGTEHRVVFIVDAHNGKAKQVEVRDQ”, 0.862; under “DDDSQNEFLQRVAEAIVTGDEKSLVRMMDPNARANVGDKQFHGREQMARWARELRERVDHLQVDDLQNHNGRLHMDIQFKDNGKNKHFIIQVEAHNGKVTKMSADEK”, 1.36.

Sequence “DDDTDRKVAEDAWRAFEKGDHKRLIELMDKDAEVQVGNRRVSGREKAAHEMVRMVERADHISVKSIDIRGDKATIKFQVNVNGHNQEAKVVFRVQNGRVQEVKFDPTMEKALRT” displayed a protease stability score of 1.39.

Take “DDDTTAKKAIDDFIENFEHGDPKEADKQADENVRVEYGDKEVDGRHQMAHWLVKLVERVDHVRWHIHEVRMDNGKINVIFENKQKFDGRTEDREFHMTADTRDGRIQLTSVHEK”: the protease stability score worked out at 0.491.

For the sequence “DDDVLRKVERLIEVENEGNEDEARELMDPNAEFQVGDKSVHGREEYASNMKKEQKELKIEIHHVTQSVHNGEADVHLTMRVNDNGRPKEQHYHATFEAHNGRIVYVKKQMRG”, the protease stability score is -0.099. The sequence “DDDVMRRLLKWVKNGDWDVLAENADPNVRVNIGDFRVHGREQFKEWADKLHKKVDHFHYRDVKVNGDRVRFDFIEHFNGKTIDMDMTARAHNGRITSLDVNVRSEDDKHAFKELVS” had a protease stability score of 1.1. For the sequence “DDDVVRKAHSFFRQYQRGNPDHLLKMMDPNARVRYGDKTYQGREDLKEILQHQLDRIRIRVKRMSLRAENGHLNVEVDEVLEHNGEPRRATADVKVTWRNGRIHEMQVVWRG”, the protease stability score stood at 0.27. Under “DDEAKDIVEEVVREGDFRQHMRLADEDAKLEYGDKRLHGRERVSDMAQKINERVDHLEVESVSVRGEEVIITLVLNVDGQKFRMKLVMDVQGDKIKSVKLEARTEDNKKLMDRAFS” stands 0.012; under “DDEAKDVVDTFMHAVRFGDPDKVDRNIDKDVRLRYGDTEVHGREDAKTYIEDLRDESRVKINEYSATAHNGKADLDADMSFTRNGQPRKRKMKVTAEVHNGHIKELDVQWRP”, -0.313; under “DDEAKEHVEDFIRALKDNNPDEVDEYIDKDAKVHVGDTIYHGREEVRRDVERKKRHLRFDYEDVKIEVHGEKVVAHMKVEYQHNGRPDKARVILDVRFHNGRVRSLHIQEQK”, -0.095. Next, “DDEALRVYQEVLEAWKHGDEDRLRQLLDPNVSIDVGDKDVHGREDYVTKMVRKARELSFHFEHVHVDHDGDKATIQMVYVIDQNGEPDRTANNVKVDVQNGKIKEIRVSSDR”: 0.622; “DDEAMKQFRHWVEAYTTGDSQRLRELVDPNATVRVGDKTYTGMEDIAKNIHQQVRRQRFHVELKRVNNQPNRIEVDLDVTFNVNGKPIRIRLRMQAEMHNGRFKYIEVRFDPDEQRKLES”: 0.861; “DDEANKTAHELVRILQTGDDESFEKMVDPNVKVVIGDRTFKGSSEVRDYLRKRKENIHEDLQVKHVSASGNKAHLDLRFRNDKNGRPQERRLELDVVFHNGKVKNVVYHWDG”: 1.39. On to “DDEANRVARHFVKALRKGDPDRLREMVDPNAKVVVGDQSWHGRDSLHHILEREIKEIRISIKDVKFQDQGDKANVEMRVESKHNGQPSESSSSVIVVVRNGRIQEIDMKTSG”, for which the protease stability score came to 0.291. Under “DDEANTVFREQLHQLEEGNHKEVAKNFDPNVRVSVGDRSIHGSEEVNTRIRRQAHESRIQVDHMSDDNSNGRVTMSADQVVNENGKPSTHRYKLTARVHNGKVKSMVITRDG” stands -0.575; under “DDEAQKLAEDYLTALQNNNPDKVIELLDPNARAEYGDKTYHGREQIHHFLRQFHKQARLQFTSYDVEVKNGQARLHMRVQVNHNGEPSQYEASIRISVHNGRMKEVQLQWSN”, 1.58. Next, “DDEAQRIVHKFVRAMQTNDPDSVEKLLDKNARIEYGDKTIHGNSQAREEVEKTKNQARFQIDSYRVQEEPGRAVLDQKVTFRINGQPDQMRHTLYFDFHNGRVTNLHMHIDEDDYQRHRG”: -0.019; “DDEAQRVFEDWLENVKKGDEDHAVQLADPNADFVIGDKTYHGREQLKREIKHERDRLRREMRIQDFDDQPPRIDIKFEFTNQHNGKPSSDTAVMKLQMHNGDVQALVVTQHR”: -0.302; “DDEARKRIRTYWELYNQGNESKLEEMVDKDVRFEVGDKTIEGRRQVSTQLHREVREADVRVDIESIHVTGNKVDVEFRHSRDHNGQPETDQQRAEFNMDNGKIQSVVHRKDG”: -0.204. Next, “DDEARNLVSEWLKAVETGDPDRVSQNMDPNASYHIGEWNVTGRETVNKLLDDVKTRLRVQFNIQHLDANGDTVDLRAMVLYEHNGKPDTKVYHFKFQQHNGKLVDVRATEDG”: 0.736; “DDEARRVAETVMTAVSRGDEEKVKEMFDPNARFRVGNKEISGRENYADWLRKLQEHARVDVSDVKAKDQGDEVTAKVRFVLSVDGTPHTMNVDVHFSVDNGKIIDYKQRFDEDDLRRILK”: -0.155; “DDEAVRAAKRAFEAWIENDPEKMKHQVDENAHLHYGDKEVHGREDANRQVHEDERQMRIELRSVTFQHHNGRAKIDMKYVLDHNGKPETRKFDATAEARNGKITKMSIDVHQ”: -0.077.
